“And” between values parts separate entries of the source, which are not always exact repeats. Equal values may be shown once.
Legend:
[1] = biological target: KgpcatΔABM1 (enriched fraction from P. gingivalis mutant ECR368) (Porphyromonas gingivalis) (UniProt Q51817); assay: cell-based or functional assay
[2] = biological target: KgpcatΔABM1 (enriched fraction from P. gingivalis mutant ECR368) (Porphyromonas gingivalis) (UniProt Q51817); assay: enzyme inhibition kinetics (non-competitive, Ki′), chromogenic substrate GPKNa, secondary plot of Vmax observed against inhibitor concentration

Question: What does the source list for “recombinant Kgp propeptide (from UniProt Q51817 25-1732)”?
Answer: inhibition of KgpcatΔABM1 activity, chromogenic substrate GPKNa [1]: 75% and 60%; inhibition of KgpcatΔABM1 enriched fraction activity, fluorescent BSA substrate (DQ BSA), 2 h [1]: 66%; Ki [2]: 2.01 µM

Question: “recombinant RgpB propeptide (from UniProt P95493 25-229)” was tested. Which % Proteolytic Activity (GPKNa; inhibitor 50 mg/L) [1] did it give?
Answer: The % Proteolytic Activity (GPKNa; inhibitor 50 mg/L) was 118%.

— patent US20140288007A1
